The results in this text go back to US6111081A, “Lactoferrin variants and uses thereof” (Baylor College of Medicine, priority 1997, dated 2000).

This data set can be described thus: pH-dependent release of 59Fe (dialysis, liquid scintillation counting). Type of data set: physicochemical. As to conditions: 59Fe-saturated protein dialyzed against buffers pH 7-2, 48 hours, 4° C.; FIG. 4. As to the method:
FIG. 4 depicts pH-dependent release of ^59 Fe from the lactoferrin amino-terminal (MN-2Y) and carboxy-terminal (MC-2Y) iron binding defective variants. ^59 Fe-saturated recombinant human lactoferrin (Rec hLF), MN-2Y and MC-2Y were dialyzed against buffers ranging in pH from 7-2. ^59 Fe remaining bound to the lactoferrin samples after dialysis was quantified by liquid scintillation counting and the Fe/protein molar ratio was determined. The data are represented as means ±S.E.M.
MN-2Y, MC-2Y and MNC-4Y (5 mg) were incubated with a four-fold excess of FeCl3 :^59 FeCl3 :NTA (400:1:8). Ward et al., 1995, Biotechnology 13:498-503. The samples were incubated at room temperature for 30 minutes. The samples were purified through NAP-10 column (Pharmacia, Piscataway, N.J.) followed by dialysis against 0.05 M Tris/HCl, 0.2 M NaCl, pH 7.0 for 12 hours to remove any non-specific iron bound to the lactoferrin variants. Iron bound to the lactoferrin variants after dialysis was quantified by liquid scintillation counting. The pH stability of iron binding for each of the lactoferrin variants was carried out as described previously. […]
The lactoferrin variants were saturated with ^59 FeCl3 and dialyzed against buffers ranging in pH from 7-2 for 48 hours at 4° C. The amount of iron remaining bound to the lactoferrin variants was quantified by liquid scintillation counting. […]

B1: recombinant lactoferrin: purified wild-type recombinant human lactoferrin expressed in Aspergillus awamori (protein, UniProt P02788 20-710, looked up)
Lactotransferrin: GRRRSVQWCAVSQPEATKCFQWQRNMRKVRGPPVSCIKRDSPIQCIQAIAENRADAVTLDGGFIYEAGLAPYKLRPVAAEVYGTERQPRTHYYAVAVVKKGGSFQLNELQGLKSCHTGLRRTAGWNVPIGTLRPFLNWTGPPEPIEAAVARFFSASCVPGADKGQFPNLCRLCAGTGENKCAFSSQEPYFSYSGAFKCLRDGAGDVAFIRESTVFEDLSDEAERDEYELLCPDNTRKPVDKFKDCHLARVPSHAVVARSVNGKEDAIWNLLRQAQEKFGKDKSPKFQLFGSPSGQKDLLFKDSAIGFSRVPPRIDSGLYLGSGYFTAIQNLRKSEEEVAARRARVVWCAVGEQELRKCNQWSGLSEGSVTCSSASTTEDCIALVLKGEADAMSLDGGYVYTAGKCGLVPVLAENYKSQQSSDPDPNCVDRPVEGYLAVAVVRRSDTSLTWNSVKGKKSCHTAVDRTAGWNIPMGLLFNQTGSCKFDEYFSQSCAPGSDPRSNLCALCIGDEQGENKCVPNSNERYYGYTGAFRCLAENAGDVAFVKDVTVLQNTDGNNNEAWAKDLKLADFALLCLDGKRKPVTEARSCHLAMAPNHAVVSRMDKVERLKQVLLHQQAKFGRNGSDCPDKFCLFQSETKNLLFNDNTECLARLHGKTTYEKYLGPQYVAGITNLKKCSTSPLLEACEFLRK
As for B1, the “pH at which iron release begins” value is 5.0 and the “pH at which iron release is completed” value is on record as 2.0.
